Experimental data from the RNAGym collection of RNA variant scans (doi:10.1073/pnas.2313332121).

B1: TPR t1 (parent)
chain: GACCAAUCUGCCCUCAGAGCUCGAGAACAUCUUCGGAUGCAGAGGAGGCAGGCUUCGGUGGCGCGAUAGCGCCAACGUCCUCAACCUCCAAUGCAUCCCACCACAUGAUGAUGCCUGAAGAGCCUUGGUUUUUUG

Variants of: B1
Experiment: polymerase ribozyme fitness, log enrichment relative to wild type (log ratio); higher = more active; in vitro selection for triplet polymerase activity
Method in brief: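 Each subunit of a heterodimeric triplet polymerase ribozyme was represented by a PCR-built, transcribed mutant library that underwent triplicate single-round in vitro selection with frozen incubation at −7 °C. Extended constructs were recovered by gel excision, streptavidin-bead capture and RT-PCR, and Illumina sequencing of input and output libraries kept genotypes with ≥10 input reads and ≥1 read per output. Fitness is the logarithm of genotype enrichment relative to wild-type enrichment, from inverse-variance-weighted replicate averages, with a logarithm base of 2.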

Compared with GACCAAUCUGCCCUCAGAGUUCGAGAACAUCUUCGGAUGCAGAGAAGGCAGGCUUCGGUGGCGCGAUAGCGCCAACGUCCUCAACCUCCAAUUCAUCCCACCACAUGAUGAUGCCUGAAGAGCCUUGGUUUUUUG, GACCAAUCUGCACUCAGAGCUCGAGAACAUCUUCGGAUGCAGAGGAGGCAGGCUUCGGUGUCGCGAUAGCGCCAACGUACUCAACCUCCAAUGCAUCCCACCACAUGAUGAUGCCUGAAGAGCCUUGGUUUUUUG is higher in “polymerase ribozyme fitness (log ratio)” value: -4.76 for the first, -1.28 for the second.

Compared with GACCAAUCUGCCCUCAGAGCUGGAGAACAUCUUCGGAUGCAUAGGAGGCAGGCUUCGGUGGCGCGAUAGCGCCAACGUCCUCAUCCUCCAAUGCAUCCCACCACAUGAUGAUGCAUGAAGAGCGUUGGUUUUUUG, GAGCAAUCUGCACUCAGAGCUCGAGAACAUCUUCGGAUGCAGAGGAGGCAGGCUUCGGUGGCGCGAUAGCGCCAACGUCCUCAACCUCCAAUGCAUCCCACCACAUGAUGAUGACUGAAGAGCCUUGCUUUUUUG is lower in “polymerase ribozyme fitness (log ratio)” value: -3.07 for the first, -3.31 for the second.

Going from GACCAAUCUGCCCUCAGAGCUCGAGAACAUCUUCGGAUGCAGAGGAGGCAGGCUUCGGUGGAGCGAUAGCGCCAACGUCCUCAAUCUCCAAUGCAUCCCACCACAUGAUGAUGCCUGAAGAGCCUUGGUUUUUUG to GACCAAUCUGCCCUCAGAGCUCGAGAACAUCUUCGGAUGCAGAGGAGGGAGGCUUCGGUGGCGCGAUAGCUCCAACGUCCUCAACCUCCAAUGCAUCCCACCACAUGAUGAUGCCUGAAGAGCCUUGGUUUUUUG, the “polymerase ribozyme fitness (log ratio)” value falls from -0.762 to -1.7.

Compared with GACCAAUCUGCCCUCAGAGCUCGAGAACAUCUUCGGAUGCAGAGGAGGCAGGCUUCGGUGGCGCGAUAGCGCCAACGUCCUCAACUUCCAAUACAUCCCACCACAUGAUGAUGCCUGAAGAGCCUUGGUUUUUUG, GACCAAUCUGCCCUCAGAGCUCGAGAACAUCUUCGGAUGCAGAGGAGGCAGGCUUUGGUGGCGCGAUAGCGCCAACGCCCUCAACCUCCAAUGCAUCCCACCACAUGAUGCUUCCUGAAGAGCCUUGGUUUUUUG is lower in “polymerase ribozyme fitness (log ratio)” value: -0.143 for the first, -4.24 for the second.

First: GACCAAUCUGCCCUCAGAGCUCGAGAACAUCUUCGGAUGCAGAGGAGGCAGGCUUCGGUGGCGCGAUAGCGCCAACGUCCUCAACCUCCAAUGCAUCCCAACACAUGAUGAUUCCUGAAGAGCCUUGGUUUUUUG
Second: GACCAAUCUGCCCUCAGAGCUCGAGAACAUCUUCGGAUGCAGAGGAGGCAGGCUUCGGUGGCGCGAUAUCGCCAACGUCCUCAACCUCCAAUGCAUCCCACCAUAUGAUGAUGCCUGAAGAGCCUUAGUUUUUUG
The “polymerase ribozyme fitness (log ratio)” value of the first is lower: -3.79 for the first, -0.309 for the second.

Going from GACCAAUUUGCCCUCAGAGCUCGAGAACAUCUUCGGAUGCAGAGGAGGUAGGCUUCGGUGGCGCGAUAGCGCCAACGUCCUCAACCUCCAAUGGAUCCCACCAUAAGAUGACGCCUGAAGAGCCUUGGUUUUUUG to GACCAAUCUCCCCUCAGAGCUCGAGAACAUCUUCGGAUGCAGAGGAGGGAGGCUUCGGUGACGCGAUAGCGCCAACGUCCCCAACCUCCAAUGCAUCCCACCACAUGAUGAUGCCUGAACAGCCUUGGUUUUUUG, the “polymerase ribozyme fitness (log ratio)” value falls from -1.29 to -4.13.

Compared with GACCAAUCUGCCCUCAGAGCUCGAGAACAUCCUCGGAUGCAGAGGAGGGAGCCUUCGGUGGCGCGAUAGCGCCAACGUCCUCAACCUCCAAUGCACCCCACCACAUGAUGAUGCCUGAAGAGCCUUGGUUUUUUG, GACCAAUCUGCCCUCAGAGCUCGAGAACAUCUUCGGAUGAAGACGAGGGAGGCAUCGGUGGCGCGAUAGCACCAACGUCCUCAACCUCCAAUGCAUCCUACCACAUGAAGAUGCUUGAAGAGCCUUGGUGUUUUG is lower in “polymerase ribozyme fitness (log ratio)” value: -1.52 for the first, -6.71 for the second.

Going from GACCAAUCUGCGCUCAGAGCUCGAGAACAUCUUCGGAUGCAGAGGAGGCAGGCUUCGGUGGCGCGAUAGCGCCAACGUCCUCAACCUCCAAUGCAUCUCACCACAUGAUGAUGCCUGAAGAGCCUUGGUUUUUUG to GACCAAUCUGCCCUCAGAGCUCGGGAACAUCUUCGGAUGCAGAGGAGGCAGGCUUCGGUGGCGCGAUAGCUCCAACGUCCUCAACCUCCAAUGCAUCCCACCACAUGAUGAUGCCUGAAGAGCCUUGGUUUUUUG, the “polymerase ribozyme fitness (log ratio)” value falls from -0.616 to -1.76.

Going from GACCAAUCUGCCCUCAGAGCUCGAGAACAUCUUCGGAUGCAGAUGAGGCAGGCUUCGGUGGCGUGAUAGCGCCAACGUCCUCAACCUCCAAUGCAUCCCACAACAUGAUGAUGCCUGAAGAGCCUUGGUUUUUUG to GACCAAUCUGCUCUCAGAGCUCGAGAACAUCUUCGGAUGCAGAGGAGGCAGGCUUCGGUGGCGCGAUAGCGCCAACGUCCUCAACCCCCAAUGCAUCCCACCUCAUGAUGAUGCCUGAAAAGCCUUGGUUUUUUG, the “polymerase ribozyme fitness (log ratio)” value rises from -2.68 to -1.81.

Compared with GACCAAUCUGCCCUCAGAGCUCGAGAACAUCUUCUGAUGCAGAGGAGGCAGGCUUCGGUGGCGCGAUAGCGCCAACGACCUCAACUUCCAAUACAUCCCACCACAUGAUGAUGCCUGAAGAAACUUGGUUUUUUG, GACCUAUCUGCCCUCAGAGCUCGAGAACAUCUUCGGAUGCAGAGGAGGCAGGCUUCGGUGGCGCGAUAGCGGCAACGUCCUCAACCUCCAAUGCAUCCCACCACACGAUGAUGCCUGAAGAGCCUUGGUUUUUUG is higher in “polymerase ribozyme fitness (log ratio)” value: -6.42 for the first, -0.417 for the second.

With GACCAAUCUGCCCUCAGAGCUCGAGAACAUCUUCGGAUGCUGAGGAGGCAGGCUUUGGUGGCGCGAUAGCGCCAGCGCCCUGAACCUCCAAUGCAUCCCACCACAUGAUGAUGCCUGGAUUGCCUUGGGUUUUUG the “polymerase ribozyme fitness (log ratio)” value was -3.43.
